As usually defined, the Kd is a measure of binding affinity in units of concentration. Lower therefore signals tighter binding. Usually koff stands for the rate constant with which the complex falls apart. Low readings indicate a long-lived complex, high ones a short-lived complex. As usually defined, the kon is the rate constant with which the complex forms. Low readings indicate slower complex formation, high ones faster complex formation. As usually defined, the EC50 is the concentration giving half of the maximal effect.

Experiment [1] addresses T1, human PCSK9 mutant protein R218S (human, UniProt Q8NBP7 31-692).
T1 construct: also called PCSK9 R218S protein
The experiment is described as follows: BLI (Octet Red 96); reference 9M284. How it is done: (§1) The ability of PCSK9 mAbs to bind to human, mouse or cynomolgus PCSK9 was characterized using the Octet Red 96 system (ForteBio). A kinetic-grade biosensor (Fortebio, #18-5063) of anti-human IgG Fc (AHC) was immersed in assay buffer after glycine pretreatment at pH 1.7. The PCSK9 monoclonal antibody to be detected was immobilized to the AHC biosensor at a concentration of 10 μg/ml for 120 seconds. The AHC biosensor loaded with the PCSK9 monoclonal antibody was then immersed in human PCSK9 antigen (GeneBank AX127530.1), mouse PCSK9 antigen (NCBI NM_153565.2) or cynomolgus PCSK9 antigen (NCBI NM_001112660.1) of different concentrations and buffer. The final dilution point of the analyte column only contained the detection buffer to test the non-specific binding between the buffer and the loaded biosensor. Antigen-antibody binding was detected from 80 to 120 s, and dissociation was detected from 120 to 180 s. A 60 second baseline was determined with the assay buffer. The affinity curves for anti-PCSK9 monoclonal antibodies were fitted using a 1:1 binding kinetic sensing monovalent binding model.
Human PCSK9 protein had different mutants. It was reported in the literature that there were many human PCSK9 mutants associated with hyperlipidemia. […]

Experiment [2] addresses human PCSK9 mutant protein R306S (human, UniProt Q8NBP7 31-692). Description: BLI (Octet Red 96), antibody on AHC biosensor, PCSK9 mutant in solution. How it is done:
as §1
(§2) Human PCSK9 protein had different mutants. It was reported in the literature that there were many human PCSK9 mutants associated with hyperlipidemia. The inventors selected human PCSK9 mutant proteins of R218S, R306S, D374H, and D374Y among them, wherein the ability of PCSK9 mAbs of the invention in binding to different mutant PCSK9 proteins was characterized using the Octet Red 96 system (ForteBio) as described above. The kinetic analysis was shown in FIG. 7 and Table 9, except for R306S, the affinities of other human PCSK9 protein mutants to the PCSK9 monoclonal antibodies of the invention (normal IgG and long half-life IgG forms) were of the same order of magnitude as native human PCSK9 protein. Among them, the kon-binding ability of long half-life PCSK9 monoclonal antibody 9M284-QL to PCSK9 R218S protein was three times higher than that of 9M284 antibody.
In general terms: BLI is a label-free optical method that tracks binding on a fibre tip over time.

Experiment [3] concerns the target human PCSK9 mutant protein D374Y (human, UniProt Q8NBP7 31-692). The experiment is described as above. The method, then: as §1, §2
Experiment [4] deals with human PCSK9 mutant protein D374H (human, UniProt Q8NBP7 31-692). The experiment is described as above. The method, then: as §1, §2
human PCSK9 mutant protein D374H, sequence (Q8NBP7 31-692 D374H limits assumed): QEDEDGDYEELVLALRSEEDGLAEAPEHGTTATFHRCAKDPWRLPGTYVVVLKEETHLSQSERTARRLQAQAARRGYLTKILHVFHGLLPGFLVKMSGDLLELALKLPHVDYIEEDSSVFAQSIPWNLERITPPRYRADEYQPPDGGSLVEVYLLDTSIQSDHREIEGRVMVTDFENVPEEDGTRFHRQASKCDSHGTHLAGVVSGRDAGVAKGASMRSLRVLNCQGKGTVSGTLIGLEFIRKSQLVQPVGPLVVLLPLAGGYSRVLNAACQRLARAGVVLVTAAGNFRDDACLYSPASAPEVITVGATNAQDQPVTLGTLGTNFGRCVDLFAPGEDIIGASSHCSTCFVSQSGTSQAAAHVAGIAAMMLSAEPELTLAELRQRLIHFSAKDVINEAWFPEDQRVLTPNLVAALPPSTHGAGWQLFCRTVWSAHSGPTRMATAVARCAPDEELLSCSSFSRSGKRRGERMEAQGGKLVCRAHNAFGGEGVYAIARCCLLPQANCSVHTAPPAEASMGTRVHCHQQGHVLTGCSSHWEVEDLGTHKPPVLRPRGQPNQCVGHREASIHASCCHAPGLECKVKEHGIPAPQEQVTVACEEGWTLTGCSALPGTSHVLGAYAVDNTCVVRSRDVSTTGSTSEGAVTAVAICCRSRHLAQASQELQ
For experiment [5], the target named is T1, human PCSK9 mutant protein R218S. The experiment is described as above. How it is done:
as §1, §2

The target in experiment [6] is T2, human PCSK9 antigen (GeneBank AX127530.1) (human, UniProt Q8NBP7 31-692). Description: cell-based or functional assay.
T2 sequence (Q8NBP7 31-692 limits assumed): as the sequence (Q8NBP7 31-692 D374H limits assumed) above, with H344D counted along it
Experiment [7] has as its target T2, human PCSK9 antigen (GeneBank …). Description: BLI (Octet Red 96), antibody on AHC biosensor, human PCSK9 in solution, 1:1 model. How it is done:
as §1
The specific experimental procedures were shown in Example 4 and Example 5. As shown in FIG. 5 and Table 7, the affinity of the long half-life antibody 9M284QL to human PCSK9 protein was substantially identical to 9M284 because the Fab region (containing VH and VL) of the engineered antibody 9M284QL was not changed compared to 9M284. As the affinity was not changed, the long half-life Fc-modified PCSK9 antibody 9M284QL, 9M284YTE and the conventional half-life antibody 9M284 had similar EC50 in the comparative test of cellular LDL uptake experiment, as shown in FIG. 6 and Table 8.

In experiment [8] the target is neonatal Fc receptor FcRn. The experiment is described as follows: ELISA at pH 6.0, antibody coated, His-tagged FcRn titrated; reference 9M284. The method, then:
(§3) The target antibody was diluted to 10 μg/mL with coating solution (15 mM Na₂CO₃, 35 mM NaHCO₃, pH 9.6), and then added to a 96-well ELISA plate at a dose of 100 μL/well and incubated at 4° C. overnight for coating. After coating, the sample wells were washed with PBST, pH 7.4 4 times, added with 300 μL/well of 4% skim milk (PBS, pH 7.4), and incubated at 25° C. for 2 hours for blocking. After blocking, the sample wells were washed 4 times with PBST, pH 7.4, added with 100 μL/well of FcRn diluted with 0.4% skim milk dissolved in PBST (pH 6.0/7.4, respectively) (initial concentration 20 μg/mL, 2-fold gradient dilution, with 11 concentration gradients in total), and incubated at 25° C. for 1.5 hours. After incubation, the sample wells were washed 4 times with PBST, pH 6.0/7.4, added with anti-His-Tag-HRP diluted in 0.4% skim milk (1/500) (pH 6.0/7.4, respectively), and incubated at 25° C. for 1 hour. After incubation, the sample wells were washed 4 times with PBST, pH 6.0/7.4, and added with 100 μL/well of TMB for development (development conditions: 25° C., 10 to 15 minutes). After development, 100 μL/well of 1 M […] was added to stop the development reaction, and the absorbance at 450 nm was read out (background correction was performed by the subtraction of the absorbance at 650 nm).
Background: ELISA stands for enzyme-linked immunosorbent assay.

The target of experiment [9] is neonatal Fc receptor FcRn. The experiment is described as follows: ELISA at pH 6.0, antibody coated at 10 µg/mL, His-tagged FcRn titrated, anti-His-Tag-HRP. The method, then: as §3
neonatal Fc receptor FcRn, sequence (P55899 24-297, chain 1 of 2): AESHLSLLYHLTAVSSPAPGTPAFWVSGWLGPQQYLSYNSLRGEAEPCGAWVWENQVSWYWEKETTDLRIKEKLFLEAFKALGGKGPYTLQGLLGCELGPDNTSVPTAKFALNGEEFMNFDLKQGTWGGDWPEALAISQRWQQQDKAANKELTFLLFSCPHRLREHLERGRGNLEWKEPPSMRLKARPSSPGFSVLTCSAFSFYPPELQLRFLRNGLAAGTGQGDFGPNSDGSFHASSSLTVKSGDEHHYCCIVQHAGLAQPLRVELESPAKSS
neonatal Fc receptor FcRn, sequence (P61769 21-119, chain 2 of 2, further chain): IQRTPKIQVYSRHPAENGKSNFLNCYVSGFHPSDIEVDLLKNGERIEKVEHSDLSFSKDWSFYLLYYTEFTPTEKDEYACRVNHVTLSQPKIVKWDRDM
The target of experiment [10] is T2, human PCSK9 antigen (GeneBank …). The experiment is described as follows: BLI (Octet Red 96), antibody on anti-human IgG Fc (AHC) biosensor, PCSK9 in solution, 1:1 model. The method, then:
as §1

Experiment [11] has as its target T3, mouse PCSK9 antigen (NCBI NM_153565.2) (mouse, UniProt Q80W65 35-694).
T3 construct: also called msPCSK9
The description is as above. The method, then:
as §1

Experiment [12] deals with T2, human PCSK9 antigen (GeneBank …). Description: cell-based or functional assay. This is another data set of the same source.

T3 sequence (Q80W65 35-694 limits assumed): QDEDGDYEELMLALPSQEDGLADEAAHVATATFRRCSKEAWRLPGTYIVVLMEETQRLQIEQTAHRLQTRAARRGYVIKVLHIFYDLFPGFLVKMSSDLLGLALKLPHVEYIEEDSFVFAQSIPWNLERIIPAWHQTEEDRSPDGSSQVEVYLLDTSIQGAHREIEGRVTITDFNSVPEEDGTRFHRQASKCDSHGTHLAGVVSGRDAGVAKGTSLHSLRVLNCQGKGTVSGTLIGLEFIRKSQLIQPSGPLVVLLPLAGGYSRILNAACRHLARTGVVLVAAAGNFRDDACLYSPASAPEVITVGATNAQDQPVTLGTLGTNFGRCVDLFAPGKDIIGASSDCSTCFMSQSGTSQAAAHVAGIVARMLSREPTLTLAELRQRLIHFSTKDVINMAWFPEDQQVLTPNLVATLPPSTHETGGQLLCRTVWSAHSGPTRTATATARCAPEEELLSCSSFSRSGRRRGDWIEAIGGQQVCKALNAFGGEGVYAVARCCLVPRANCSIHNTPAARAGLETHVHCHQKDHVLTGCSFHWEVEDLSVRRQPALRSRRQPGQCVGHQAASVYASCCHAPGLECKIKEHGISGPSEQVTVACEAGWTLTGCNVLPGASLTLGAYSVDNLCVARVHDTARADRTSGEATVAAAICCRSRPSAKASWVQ
human PCSK9 mutant protein R306S, sequence (Q8NBP7 31-692 R306S limits assumed): as the sequence (Q8NBP7 31-692 D374H limits assumed) above, with R276S, H344D counted along it
T1 sequence (Q8NBP7 31-692 R218S limits assumed): as the sequence (Q8NBP7 31-692 D374H limits assumed) above, with R188S, H344D counted along it
human PCSK9 mutant protein D374Y, sequence (Q8NBP7 31-692 D374Y limits assumed): as the sequence (Q8NBP7 31-692 D374H limits assumed) above, with H344Y counted along it

B1: monoclonal antibody 9M284QL (antibody)
heavy: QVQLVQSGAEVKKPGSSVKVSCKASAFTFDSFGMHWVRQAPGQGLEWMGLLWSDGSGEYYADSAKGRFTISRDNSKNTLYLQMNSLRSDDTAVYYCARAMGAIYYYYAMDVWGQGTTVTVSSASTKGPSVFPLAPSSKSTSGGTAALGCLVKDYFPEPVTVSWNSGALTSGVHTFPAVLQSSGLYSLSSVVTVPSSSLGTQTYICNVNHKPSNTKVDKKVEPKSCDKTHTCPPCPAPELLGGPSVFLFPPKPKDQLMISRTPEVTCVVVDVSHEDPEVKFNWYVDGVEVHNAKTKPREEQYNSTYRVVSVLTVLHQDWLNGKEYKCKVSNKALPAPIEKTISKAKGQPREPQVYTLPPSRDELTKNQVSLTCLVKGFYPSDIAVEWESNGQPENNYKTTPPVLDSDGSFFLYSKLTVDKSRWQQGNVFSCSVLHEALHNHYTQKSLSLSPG
light: QSALTQPPSVSGSPGQSVTISCTGTSSNIGNQFVSWYQQLPGTAPKLMIYEYNKRPSGVPDRFSGSKSGNTASLTISGLQTGDEADYYCGSWDSSLSGYVFGTGTRVTVLGQPKAAPSVTLFPPSSEELQANKATLVCLISDFYPGAVTVAWKADSSPVKAGVETTTPSKQSNNKYAASSYLSLTPEQWKSHRSYSCQVTHEGSTVEKTVAPTECS
notes: also called long half-life PCSK9 monoclonal antibody 9M284-QL
As to B1, in [1], the “fold higher kon than 9M284” value is 3 fold. Besides, the Kd was 1.46 nM in [2]; less than 1 pM in [3]; less than 1 pM in [4]; less than 1 pM in experiment [5]; less than 1 pM in experiment [7]. Moreover, the koff was 4.64e-05 s⁻¹ in experiment [2]; less than 1e-07 s⁻¹ in experiment [3]; less than 1e-07 s⁻¹ in [4]; less than 1e-07 s⁻¹ in experiment [5]; less than 1e-07 s⁻¹ in [7]. The kon in experiment [2] came out at 31800 M⁻¹ s⁻¹; in [3], 29700 M⁻¹ s⁻¹; in [4], 26900 M⁻¹ s⁻¹; in experiment [5], 36500 M⁻¹ s⁻¹; in experiment [7], 58500 M⁻¹ s⁻¹. Moreover, the “EC50, cellular LDL uptake experiment” value in experiment [6] is 5.28 µg/mL. Further, in [8], the “fold smaller EC50 than 9M284” value is 2.8 fold. Also, the EC50 in experiment [9] came to 25 µg/mL.

B2: monoclonal antibody 9M284YTE (antibody)
heavy: QVQLVQSGAEVKKPGSSVKVSCKASAFTFDSFGMHWVRQAPGQGLEWMGLLWSDGSGEYYADSAKGRFTISRDNSKNTLYLQMNSLRSDDTAVYYCARAMGAIYYYYAMDVWGQGTTVTVSSASTKGPSVFPLAPSSKSTSGGTAALGCLVKDYFPEPVTVSWNSGALTSGVHTFPAVLQSSGLYSLSSVVTVPSSSLGTQTYICNVNHKPSNTKVDKKVEPKSCDKTHTCPPCPAPELLGGPSVFLFPPKPKDTLYITREPEVTCVVVDVSHEDPEVKFNWYVDGVEVHNAKTKPREEQYNSTYRVVSVLTVLHQDWLNGKEYKCKVSNKALPAPIEKTISKAKGQPREPQVYTLPPSRDELTKNQVSLTCLVKGFYPSDIAVEWESNGQPENNYKTTPPVLDSDGSFFLYSKLTVDKSRWQQGNVFSCSVMHEALHNHYTQKSLSLSPG
light: QSALTQPPSVSGSPGQSVTISCTGTSSNIGNQFVSWYQQLPGTAPKLMIYEYNKRPSGVPDRFSGSKSGNTASLTISGLQTGDEADYYCGSWDSSLSGYVFGTGTRVTVLGQPKAAPSVTLFPPSSEELQANKATLVCLISDFYPGAVTVAWKADSSPVKAGVETTTPSKQSNNKYAASSYLSLTPEQWKSHRSYSCQVTHEGSTVEKTVAPTECS
With B2, the “EC50, cellular LDL uptake experiment” value in experiment [6] was 4.36 µg/mL. Further, in experiment [8], the “fold smaller EC50 than 9M284” value worked out at 2.8 fold. Also, the EC50 in experiment [9] was 24.3 µg/mL.

B3: monoclonal antibody 9M283 (antibody, human IgG2, lambda, V domains shown)
VH: QVQLVQSGAEVKKPGSSVKVSCKASAFTFDSFGMHWVRQAPGQGLEWMGLLWSDGSDEYYADSAKGRFTISRDNSKNTLYLQMNSLRSDDTAVYYCARALGAIYSYYAMDVWGQGTTVTVSS
VL: QSALTQPPSVSGSPGQSVTISCTGTSSNIGNQFVSWYQQLPGTAPKLMIYEYNKRPSGVPDRFSGSKSGNTASLTISGLQTGDEADYYCGSWDSSLSGYVFGTGTRVTVLG
notes: the claims call them variable regions; also called PCSK9 monoclonal antibody 9M283
In experiment [10], B3 showed a Kd of less than 1 pM, a koff of less than 1e-07 s⁻¹ and a kon of 399000 M⁻¹ s⁻¹. Besides, in experiment [11], the affinity, expressed as Kd, was 14 nM; the koff is 0.0051 s⁻¹; the kon was 350000 M⁻¹ s⁻¹. Moreover, the “IC50, cellular LDL uptake assay (HepG2 cells, Dil-LDL, 20 µg/ml human PCSK9)” value in experiment [12] amounted to 6.12 nM.

B4: monoclonal antibody 9M284 (antibody, human IgG2, lambda)
heavy: QVQLVQSGAEVKKPGSSVKVSCKASAFTFDSFGMHWVRQAPGQGLEWMGLLWSDGSGEYYADSAKGRFTISRDNSKNTLYLQMNSLRSDDTAVYYCARAMGAIYYYYAMDVWGQGTTVTVSSASTKGPSVFPLAPCSRSTSESTAALGCLVKDYFPEPVTVSWNSGALTSGVHTFPAVLQSSGLYSLSSVVTVPSSNFGTQTYTCNVDHKPSNTKVDKTVERKCCVECPPCPAPPVAGPSVFLFPPKPKDTLMISRTPEVTCVVVDVSHEDPEVQFNWYVDGVEVHNAKTKPREEQFNSTFRVVSVLTVVHQDWLNGKEYKCKVSNKGLPAPIEKTISKTKGQPREPQVYTLPPSREEMTKNQVSLTCLVKGFYPSDIAVEWESNGQPENNYKTTPPMLDSDGSFFLYSKLTVDKSRWQQGNVFSCSVMHEALHNHYTQKSLSLSPG
light: QSALTQPPSVSGSPGQSVTISCTGTSSNIGNQFVSWYQQLPGTAPKLMIYEYNKRPSGVPDRFSGSKSGNTASLTISGLQTGDEADYYCGSWDSSLSGYVFGTGTRVTVLGQPKAAPSVTLFPPSSEELQANKATLVCLISDFYPGAVTVAWKADSSPVKAGVETTTPSKQSNNKYAASSYLSLTPEQWKSHRSYSCQVTHEGSTVEKTVAPTECS
notes: Fully human antibody from a phage library; the claims call 24 and 26 variable regions; also called PCSK9 monoclonal antibody 9M284
Consider B4, for which the Kd in experiment [2] was 2.4 nM; in experiment [3] it was less than 1 pM; in experiment [4], less than 1 pM; in experiment [5], less than 1 pM; in [7] it was less than 1 pM; in experiment [10], less than 1 pM. This molecule displayed a Kd in experiment [11] of 3 nM. For the same molecule, the koff in experiment [2] was 8.14e-05 s⁻¹; in experiment [3], less than 1e-07 s⁻¹; in experiment [4], less than 1e-07 s⁻¹; in experiment [5], less than 1e-07 s⁻¹; in experiment [7] it was less than 1e-07 s⁻¹; in experiment [10], less than 1e-07 s⁻¹. The molecule also registered a koff in experiment [11] of 0.00094 s⁻¹. Further, the kon in experiment [2] worked out at 33900 M⁻¹ s⁻¹; in experiment [3] it was 21800 M⁻¹ s⁻¹; in experiment [4] it was 24900 M⁻¹ s⁻¹; in experiment [5] it was 11400 M⁻¹ s⁻¹; in experiment [7], 56000 M⁻¹ s⁻¹; in experiment [10], 366000 M⁻¹ s⁻¹. This molecule also gave a kon in experiment [11] of 320000 M⁻¹ s⁻¹. The “EC50, cellular LDL uptake experiment” value in [6] turned out to be 4.52 µg/mL. The “IC50, cellular LDL uptake assay (HepG2 cells, Dil-LDL, 20 µg/ml human PCSK9)” value in experiment [12] was found to be 5.75 nM. In experiment [9], this molecule showed an EC50 of 71.9 µg/mL.

Values taken from patent US20190194356A1 (CHANGZHOU BOJIA BIOTECHNOLOGY, published 2019).
